From article PMC10547724, “Structural insights into the conformational changes of BTR1/SLC4A11 in complex with PIP2” (Nature Communications, 2023)

Target: the molecule itself
Experiment: cryo-EM structure; single-particle cryo-EM of protein purified in GDN micelles (150 mM NaCl, 20 mM HEPES pH 7.4); wild type apo or with NH4Cl (outward-facing), R125H mutant (inward-facing; pH not named for it)

Protein	stoichiometry N
BTR1 (SLC4A11), full-length human, wild type (natural protein, UniProt Q8NBS3-1 1-891, looked up, human BTR1 (SLC4A11), full length, residues 1-891 (NTD 1-307, TMD 336-891), amplified from human HEK293 cDNA; GFP and His tag removed with TEV protease before gel filtration; Residues 1-103, 308-335 and 888-891 were not built in the model; also called NaBC1; bicarbonate transporter-related protein-1; source: HEK293F cells, baculovirus (BacMam) infection, purified (Ni-NTA, TEV cleavage, gel …)) MSQVGGRGDRCTQEVQGLVHGAGDLSASLAENSPTMSQNGYFEDSSYYKCDTDDTFEAREEILGDEAFDTANSSIVSGESIRFFVNVNLEMQATNTENEATSGGCVLLHTSRKYLKLKNFKEEIRAHRDLDGFLAQASIVLNETATSLDNVLRTMLRRFARDPDNNEPNCNLDLLMAMLFTDAGAPMRGKVHLLSDTIQGVTATVTGVRYQQSWLCIICTMKALQKRHVCISRLVRPQNWGENSCEVRFVILVLAPPKMKSTKTAMEVARTFATMFSDIAFRQKLLETRTEEEFKEALVHQRQLLTMVSHGPVAPRTKERSTVSLPAHRHPEPPKCKDFVPFGKGIREDIARRFPLYPLDFTDGIIGKNKAVGKYITTTLFLYFACLLPTIAFGSLNDENTDGAIDVQKTIAGQSIGGLLYALFSGQPLVILLTTAPLALYIQVIRVICDDYDLDFNSFYAWTGLWNSFFLALYAFFNLSLVMSLFKRSTEEIIALFISITFVLDAVKGTVKIFWKYYYGHYLDDYHTKRTSSLVSLSGLGASLNASLHTALNASFLASPTELPSATHSGQATAVLSLLIMLGTLWLGYTLYQFKKSPYLHPCVREILSDCALPIAVLAFSLISSHGFREIEMSKFRYNPSESPFAMAQIQSLSLRAVSGAMGLGFLLSMLFFIEQNLVAALVNAPENRLVKGTAYHWDLLLLAIINTGLSLFGLPWIHAAYPHSPLHVRALALVEERVENGHIYDTIVNVKETRLTSLGASVLVGLSLLLLPVPLQWIPKPVLYGLFLYIALTSLDGNQLVQRVALLLKEQTAYPPTHYIRRVPQRKIHYFTGLQVLQLLLLCAFGMSSLPYMKMIFPLIMIAMIPIRYILLPRIIEAKYLDVMDAEHRP	2
BTR1 (SLC4A11) R125H, full-length human, pathogenic mutant (natural protein, UniProt Q8NBS3-1 1-891, looked up, human BTR1 (SLC4A11), full length, with the disease-associated mutation R125H made in the PBM-SLC4A11 plasmid; GFP and His tag removed with TEV protease before gel filtration; also called BTR1-R125H; BTR1_(IF/R125H); source: HEK293F cells, baculovirus (BacMam) infection, purified (Ni-NTA, TEV cleavage, gel filtration) in GDN micelles; not shown: GFP, C-terminal, cleaved; His8, C-terminal, cleaved) MSQVGGRGDRCTQEVQGLVHGAGDLSASLAENSPTMSQNGYFEDSSYYKCDTDDTFEAREEILGDEAFDTANSSIVSGESIRFFVNVNLEMQATNTENEATSGGCVLLHTSRKYLKLKNFKEEIHAHRDLDGFLAQASIVLNETATSLDNVLRTMLRRFARDPDNNEPNCNLDLLMAMLFTDAGAPMRGKVHLLSDTIQGVTATVTGVRYQQSWLCIICTMKALQKRHVCISRLVRPQNWGENSCEVRFVILVLAPPKMKSTKTAMEVARTFATMFSDIAFRQKLLETRTEEEFKEALVHQRQLLTMVSHGPVAPRTKERSTVSLPAHRHPEPPKCKDFVPFGKGIREDIARRFPLYPLDFTDGIIGKNKAVGKYITTTLFLYFACLLPTIAFGSLNDENTDGAIDVQKTIAGQSIGGLLYALFSGQPLVILLTTAPLALYIQVIRVICDDYDLDFNSFYAWTGLWNSFFLALYAFFNLSLVMSLFKRSTEEIIALFISITFVLDAVKGTVKIFWKYYYGHYLDDYHTKRTSSLVSLSGLGASLNASLHTALNASFLASPTELPSATHSGQATAVLSLLIMLGTLWLGYTLYQFKKSPYLHPCVREILSDCALPIAVLAFSLISSHGFREIEMSKFRYNPSESPFAMAQIQSLSLRAVSGAMGLGFLLSMLFFIEQNLVAALVNAPENRLVKGTAYHWDLLLLAIINTGLSLFGLPWIHAAYPHSPLHVRALALVEERVENGHIYDTIVNVKETRLTSLGASVLVGLSLLLLPVPLQWIPKPVLYGLFLYIALTSLDGNQLVQRVALLLKEQTAYPPTHYIRRVPQRKIHYFTGLQVLQLLLLCAFGMSSLPYMKMIFPLIMIAMIPIRYILLPRIIEAKYLDVMDAEHRP	2
